# Results as given in patent publication US20200002421A1 (AbbVie / Abbott, published 2020).
# T1: Human full length B7-H3 (human, UniProt Q5ZPR3 29-534)
# T1 sequence: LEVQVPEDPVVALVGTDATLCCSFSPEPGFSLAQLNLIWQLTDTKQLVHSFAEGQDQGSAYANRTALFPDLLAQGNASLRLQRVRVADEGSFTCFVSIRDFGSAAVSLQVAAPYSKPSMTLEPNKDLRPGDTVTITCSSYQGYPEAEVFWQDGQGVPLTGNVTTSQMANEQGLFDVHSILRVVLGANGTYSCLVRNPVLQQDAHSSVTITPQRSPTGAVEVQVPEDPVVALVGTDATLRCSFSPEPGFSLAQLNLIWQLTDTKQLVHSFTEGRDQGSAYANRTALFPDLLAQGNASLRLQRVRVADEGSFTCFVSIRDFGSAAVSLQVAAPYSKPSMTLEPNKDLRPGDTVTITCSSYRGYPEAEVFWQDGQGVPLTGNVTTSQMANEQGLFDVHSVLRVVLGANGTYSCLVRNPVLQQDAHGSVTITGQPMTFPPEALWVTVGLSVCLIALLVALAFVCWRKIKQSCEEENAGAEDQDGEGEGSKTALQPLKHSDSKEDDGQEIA
# Target: T1, Human full length B7-H3
# Experiment: cell-based or functional assay
row,Binder,EC50 nM H1650 (in vitro tumor cell cytotoxicity)
1,"huAb13v1-TV (antibody, human IgG1, kappa, L234A L235A, V domains shown, synthon TV on interchain Cys) VH: EVQLQESGPGLVKPSETLSLTCAVTGYSITSGYSWHWIRQFPGNGLEWMGYIHSSGSTNYNPSLKSRISISRDTSKNQFFLKLSSVTAADTAVYYCAGYDDYFEYWGQGTTVTVSS VL: DIQMTQSPSSLSASVGDRVTITCKASQNVGFNVAWYQQKPGKSPKALIYSASYRYSGVPSRFSGSGSGTDFTLTISSLQPEDFAEYFCQQYNWYPFTFGQGTKLEIKR",0.43 nM
2,"huAb13v1-AAD (antibody, human IgG1, kappa, L234A L235A, V domains shown, synthon AAD on interchain Cys) VH: EVQLQESGPGLVKPSETLSLTCAVTGYSITSGYSWHWIRQFPGNGLEWMGYIHSSGSTNYNPSLKSRISISRDTSKNQFFLKLSSVTAADTAVYYCAGYDDYFEYWGQGTTVTVSS VL: DIQMTQSPSSLSASVGDRVTITCKASQNVGFNVAWYQQKPGKSPKALIYSASYRYSGVPSRFSGSGSGTDFTLTISSLQPEDFAEYFCQQYNWYPFTFGQGTKLEIKR",0.21 nM
3,"huAb13v1-AAA (antibody, human IgG1, kappa, L234A L235A, V domains shown, synthon AAA on interchain Cys) VH: EVQLQESGPGLVKPSETLSLTCAVTGYSITSGYSWHWIRQFPGNGLEWMGYIHSSGSTNYNPSLKSRISISRDTSKNQFFLKLSSVTAADTAVYYCAGYDDYFEYWGQGTTVTVSS VL: DIQMTQSPSSLSASVGDRVTITCKASQNVGFNVAWYQQKPGKSPKALIYSASYRYSGVPSRFSGSGSGTDFTLTISSLQPEDFAEYFCQQYNWYPFTFGQGTKLEIKR",0.37 nM
4,"huAb3v2.5-YG (antibody, human IgG1, kappa, L234A L235A, V domains shown, synthon YG on interchain Cys) VH: EVQLVQSGAEVKKPGSSVKVSCKASGYTFSSYWMHWVRQAPGQGLEWIGLIHPESGSTNYNEMFKNRATLTVDRSTSTAYMELSSLRSEDTAVYYCAGGGRLYFDYWGQGTTVTVSS VL: DIVMTQSPLSLPVTPGEPASISCRSSQSLVHSNRDTYLRWYLQKPGQSPQLLIYKVSNRFSGVPDRFSGSGSGTDFTLKISRVEAEDVGVYYCSQSTHVPYTFGGGTKVEIKR",0.71 nM
5,"huAb3v2.6-YY (antibody, human IgG1, kappa, L234A L235A, V domains shown, synthon YY on interchain Cys) VH: EVQLVQSGAEVKKPGSSVKVSCKASGYTFSSYWMHWVRQAPGQGLEWIGLIHPESGSTNYNEMFKNRATLTVDRSTSTAYMELSSLRSEDTAVYYCAGGGRLYFDYWGQGTTVTVSS VL: DIVMTQSPLSLPVTPGEPASISCRSSQSLVHSNQDTYLRWYLQKPGQSPQLLIYKVSNRFSGVPDRFSGSGSGTDFTLKISRVEAEDVGVYYCSQSTHVPYTFGGGTKVEIKR",0.72 nM
6,"huAb3v2.6-ZT (antibody, human IgG1, kappa, L234A L235A, V domains shown, synthon ZT on interchain Cys) VH: EVQLVQSGAEVKKPGSSVKVSCKASGYTFSSYWMHWVRQAPGQGLEWIGLIHPESGSTNYNEMFKNRATLTVDRSTSTAYMELSSLRSEDTAVYYCAGGGRLYFDYWGQGTTVTVSS VL: DIVMTQSPLSLPVTPGEPASISCRSSQSLVHSNQDTYLRWYLQKPGQSPQLLIYKVSNRFSGVPDRFSGSGSGTDFTLKISRVEAEDVGVYYCSQSTHVPYTFGGGTKVEIKR",1.11 nM
7,"huAb3v2.6-YG (antibody, human IgG1, kappa, L234A L235A, V domains shown, synthon YG on interchain Cys) VH: EVQLVQSGAEVKKPGSSVKVSCKASGYTFSSYWMHWVRQAPGQGLEWIGLIHPESGSTNYNEMFKNRATLTVDRSTSTAYMELSSLRSEDTAVYYCAGGGRLYFDYWGQGTTVTVSS VL: DIVMTQSPLSLPVTPGEPASISCRSSQSLVHSNQDTYLRWYLQKPGQSPQLLIYKVSNRFSGVPDRFSGSGSGTDFTLKISRVEAEDVGVYYCSQSTHVPYTFGGGTKVEIKR",0.68 nM
8,"huAb3v2.6-ZZ (antibody, human IgG1, kappa, L234A L235A, V domains shown, synthon ZZ on interchain Cys) VH: EVQLVQSGAEVKKPGSSVKVSCKASGYTFSSYWMHWVRQAPGQGLEWIGLIHPESGSTNYNEMFKNRATLTVDRSTSTAYMELSSLRSEDTAVYYCAGGGRLYFDYWGQGTTVTVSS VL: DIVMTQSPLSLPVTPGEPASISCRSSQSLVHSNQDTYLRWYLQKPGQSPQLLIYKVSNRFSGVPDRFSGSGSGTDFTLKISRVEAEDVGVYYCSQSTHVPYTFGGGTKVEIKR",1.35 nM
9,"huAb3v2.5-KZ (antibody, human IgG1, kappa, L234A L235A, V domains shown, synthon KZ on interchain Cys) VH: EVQLVQSGAEVKKPGSSVKVSCKASGYTFSSYWMHWVRQAPGQGLEWIGLIHPESGSTNYNEMFKNRATLTVDRSTSTAYMELSSLRSEDTAVYYCAGGGRLYFDYWGQGTTVTVSS VL: DIVMTQSPLSLPVTPGEPASISCRSSQSLVHSNRDTYLRWYLQKPGQSPQLLIYKVSNRFSGVPDRFSGSGSGTDFTLKISRVEAEDVGVYYCSQSTHVPYTFGGGTKVEIKR",0.87 nM
10,"huAb3v2.6-WD (antibody, human IgG1, kappa, L234A L235A, V domains shown, synthon WD on interchain Cys) VH: EVQLVQSGAEVKKPGSSVKVSCKASGYTFSSYWMHWVRQAPGQGLEWIGLIHPESGSTNYNEMFKNRATLTVDRSTSTAYMELSSLRSEDTAVYYCAGGGRLYFDYWGQGTTVTVSS VL: DIVMTQSPLSLPVTPGEPASISCRSSQSLVHSNQDTYLRWYLQKPGQSPQLLIYKVSNRFSGVPDRFSGSGSGTDFTLKISRVEAEDVGVYYCSQSTHVPYTFGGGTKVEIKR",0.79 nM
11,"huAb3v2.6-SE (antibody, human IgG1, kappa, L234A L235A, V domains shown, synthon SE on interchain Cys) VH: EVQLVQSGAEVKKPGSSVKVSCKASGYTFSSYWMHWVRQAPGQGLEWIGLIHPESGSTNYNEMFKNRATLTVDRSTSTAYMELSSLRSEDTAVYYCAGGGRLYFDYWGQGTTVTVSS VL: DIVMTQSPLSLPVTPGEPASISCRSSQSLVHSNQDTYLRWYLQKPGQSPQLLIYKVSNRFSGVPDRFSGSGSGTDFTLKISRVEAEDVGVYYCSQSTHVPYTFGGGTKVEIKR",1.01 nM
12,"huAb3v2.6-LB (antibody, human IgG1, kappa, L234A L235A, V domains shown, synthon LB on interchain Cys) VH: EVQLVQSGAEVKKPGSSVKVSCKASGYTFSSYWMHWVRQAPGQGLEWIGLIHPESGSTNYNEMFKNRATLTVDRSTSTAYMELSSLRSEDTAVYYCAGGGRLYFDYWGQGTTVTVSS VL: DIVMTQSPLSLPVTPGEPASISCRSSQSLVHSNQDTYLRWYLQKPGQSPQLLIYKVSNRFSGVPDRFSGSGSGTDFTLKISRVEAEDVGVYYCSQSTHVPYTFGGGTKVEIKR",2.07 nM
13,"huAb3v2.6-AAA (antibody, human IgG1, kappa, L234A L235A, V domains shown, synthon AAA on interchain Cys) VH: EVQLVQSGAEVKKPGSSVKVSCKASGYTFSSYWMHWVRQAPGQGLEWIGLIHPESGSTNYNEMFKNRATLTVDRSTSTAYMELSSLRSEDTAVYYCAGGGRLYFDYWGQGTTVTVSS VL: DIVMTQSPLSLPVTPGEPASISCRSSQSLVHSNQDTYLRWYLQKPGQSPQLLIYKVSNRFSGVPDRFSGSGSGTDFTLKISRVEAEDVGVYYCSQSTHVPYTFGGGTKVEIKR",1.24 nM
14,"huAb3v2.6-SR (antibody, human IgG1, kappa, L234A L235A, V domains shown, synthon SR on interchain Cys) VH: EVQLVQSGAEVKKPGSSVKVSCKASGYTFSSYWMHWVRQAPGQGLEWIGLIHPESGSTNYNEMFKNRATLTVDRSTSTAYMELSSLRSEDTAVYYCAGGGRLYFDYWGQGTTVTVSS VL: DIVMTQSPLSLPVTPGEPASISCRSSQSLVHSNQDTYLRWYLQKPGQSPQLLIYKVSNRFSGVPDRFSGSGSGTDFTLKISRVEAEDVGVYYCSQSTHVPYTFGGGTKVEIKR",0.71 nM
15,"huAb3v2.6-XW (antibody, human IgG1, kappa, L234A L235A, V domains shown, synthon XW on interchain Cys) VH: EVQLVQSGAEVKKPGSSVKVSCKASGYTFSSYWMHWVRQAPGQGLEWIGLIHPESGSTNYNEMFKNRATLTVDRSTSTAYMELSSLRSEDTAVYYCAGGGRLYFDYWGQGTTVTVSS VL: DIVMTQSPLSLPVTPGEPASISCRSSQSLVHSNQDTYLRWYLQKPGQSPQLLIYKVSNRFSGVPDRFSGSGSGTDFTLKISRVEAEDVGVYYCSQSTHVPYTFGGGTKVEIKR",2.4 nM
16,"huAb3v2.6-CZ (antibody, human IgG1, kappa, L234A L235A, V domains shown, synthon CZ on interchain Cys) VH: EVQLVQSGAEVKKPGSSVKVSCKASGYTFSSYWMHWVRQAPGQGLEWIGLIHPESGSTNYNEMFKNRATLTVDRSTSTAYMELSSLRSEDTAVYYCAGGGRLYFDYWGQGTTVTVSS VL: DIVMTQSPLSLPVTPGEPASISCRSSQSLVHSNQDTYLRWYLQKPGQSPQLLIYKVSNRFSGVPDRFSGSGSGTDFTLKISRVEAEDVGVYYCSQSTHVPYTFGGGTKVEIKR",0.4 nM
17,"huAb3v2.6-TX (antibody, human IgG1, kappa, L234A L235A, V domains shown, synthon TX on interchain Cys) VH: EVQLVQSGAEVKKPGSSVKVSCKASGYTFSSYWMHWVRQAPGQGLEWIGLIHPESGSTNYNEMFKNRATLTVDRSTSTAYMELSSLRSEDTAVYYCAGGGRLYFDYWGQGTTVTVSS VL: DIVMTQSPLSLPVTPGEPASISCRSSQSLVHSNQDTYLRWYLQKPGQSPQLLIYKVSNRFSGVPDRFSGSGSGTDFTLKISRVEAEDVGVYYCSQSTHVPYTFGGGTKVEIKR",0.47 nM
18,"huAb3v2.6-AAD (antibody, human IgG1, kappa, L234A L235A, V domains shown, synthon AAD on interchain Cys) VH: EVQLVQSGAEVKKPGSSVKVSCKASGYTFSSYWMHWVRQAPGQGLEWIGLIHPESGSTNYNEMFKNRATLTVDRSTSTAYMELSSLRSEDTAVYYCAGGGRLYFDYWGQGTTVTVSS VL: DIVMTQSPLSLPVTPGEPASISCRSSQSLVHSNQDTYLRWYLQKPGQSPQLLIYKVSNRFSGVPDRFSGSGSGTDFTLKISRVEAEDVGVYYCSQSTHVPYTFGGGTKVEIKR",0.85 nM
19,"huAb3v2.6-KZ (antibody, human IgG1, kappa, L234A L235A, V domains shown, synthon KZ on interchain Cys) VH: EVQLVQSGAEVKKPGSSVKVSCKASGYTFSSYWMHWVRQAPGQGLEWIGLIHPESGSTNYNEMFKNRATLTVDRSTSTAYMELSSLRSEDTAVYYCAGGGRLYFDYWGQGTTVTVSS VL: DIVMTQSPLSLPVTPGEPASISCRSSQSLVHSNQDTYLRWYLQKPGQSPQLLIYKVSNRFSGVPDRFSGSGSGTDFTLKISRVEAEDVGVYYCSQSTHVPYTFGGGTKVEIKR",5.52 nM
20,"huAb3v2.6-TV (antibody, human IgG1, kappa, L234A L235A, V domains shown, synthon TV on interchain Cys) VH: EVQLVQSGAEVKKPGSSVKVSCKASGYTFSSYWMHWVRQAPGQGLEWIGLIHPESGSTNYNEMFKNRATLTVDRSTSTAYMELSSLRSEDTAVYYCAGGGRLYFDYWGQGTTVTVSS VL: DIVMTQSPLSLPVTPGEPASISCRSSQSLVHSNQDTYLRWYLQKPGQSPQLLIYKVSNRFSGVPDRFSGSGSGTDFTLKISRVEAEDVGVYYCSQSTHVPYTFGGGTKVEIKR",0.52 nM
